Laboratory results: patent publication US20090092614A1

Tests used:
[1] = molecular target: human IGF-1R(1-903)-Fc (human) (UniProt P08069); test: competition ELISA: biotinylated hIGF-1R-Fc on streptavidin plate, antibody titrated in 320 nM human IGF-1 His (blocked ligand), anti-His-HRP detection
[2] = molecular target: human IGF-1R(1-903)-Fc (human) (UniProt P08069); test: blocking ELISA, competitor 320 nM IGF-1
[3] = molecular target: human IGF-1R(1-903)-Fc (human) (UniProt P08069); test: blocking ELISA, competitor 640 nM IGF-2

human IGF-1R(1-903)-Fc (human), sequence (P08069 31-933): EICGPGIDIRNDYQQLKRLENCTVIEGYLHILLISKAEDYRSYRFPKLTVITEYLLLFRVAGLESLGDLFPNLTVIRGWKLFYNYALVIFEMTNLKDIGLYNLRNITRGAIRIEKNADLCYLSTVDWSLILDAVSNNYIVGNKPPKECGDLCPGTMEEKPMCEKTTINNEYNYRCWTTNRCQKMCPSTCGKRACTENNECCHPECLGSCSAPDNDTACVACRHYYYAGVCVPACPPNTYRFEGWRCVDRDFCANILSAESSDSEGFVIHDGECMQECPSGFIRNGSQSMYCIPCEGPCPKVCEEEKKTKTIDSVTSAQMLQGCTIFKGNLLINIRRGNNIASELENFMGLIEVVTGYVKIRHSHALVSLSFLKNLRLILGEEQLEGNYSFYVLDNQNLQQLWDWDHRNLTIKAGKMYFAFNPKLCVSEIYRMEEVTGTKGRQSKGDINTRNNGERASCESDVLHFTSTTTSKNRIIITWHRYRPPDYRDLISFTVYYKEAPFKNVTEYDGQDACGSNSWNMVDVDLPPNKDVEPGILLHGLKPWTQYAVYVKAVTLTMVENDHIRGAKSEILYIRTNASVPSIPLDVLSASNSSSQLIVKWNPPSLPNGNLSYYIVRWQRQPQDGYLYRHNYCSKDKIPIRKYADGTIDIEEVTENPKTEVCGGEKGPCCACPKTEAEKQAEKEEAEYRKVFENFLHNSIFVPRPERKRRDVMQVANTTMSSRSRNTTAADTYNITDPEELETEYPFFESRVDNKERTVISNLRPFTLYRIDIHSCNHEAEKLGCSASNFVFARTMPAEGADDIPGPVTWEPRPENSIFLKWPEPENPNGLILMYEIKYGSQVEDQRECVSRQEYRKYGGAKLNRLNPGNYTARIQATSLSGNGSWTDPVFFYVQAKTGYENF

IC50 (read off the curve) [1]: 4 nM
% IGF-1 inhibition upon antibody saturation [2]: 23%
% IGF-2 inhibition upon antibody saturation [3]: 60%
Substance: αIR3 (antibody)
